Experimental data reported in patent US20220169728A1 (AB THERAPEUTICS, published 2022).

B1: anti-CD55 antibody with CD55VH (SEQ ID NO: 14) N52P and VL (SEQ ID NO: 15) (antibody, V domains shown)
VH: QVKLQESGGGLVQPGGSLKLSCAASGFTFSGYGMSWIRQTPDKRLEWVATIPSGGSYTYYSDSVKGRFTISRDNVKNTLYLQMSSLKSEDTAMYYCARRNGTLYYYLMDYWGRGTLVTVSS
VL: QSVLTQPPSASGSPGQSVTISCTGTSSDVGGYNYVSWYQQHPGKAPKFMIYDVSKRPSGVSNRFSGSKSGNTASLTISGVQAEDEADYYCSSYTSASTVIFGGGTKLTVL
notes: also called Test 11
B2: anti-CD55 antibody with CD55VH (SEQ ID NO: 14) N100K and VL (SEQ ID NO: 15) (antibody, V domains shown)
VH: QVKLQESGGGLVQPGGSLKLSCAASGFTFSGYGMSWIRQTPDKRLEWVATINSGGSYTYYSDSVKGRFTISRDNVKNTLYLQMSSLKSEDTAMYYCARRKGTLYYYLMDYWGRGTLVTVSS
VL: QSVLTQPPSASGSPGQSVTISCTGTSSDVGGYNYVSWYQQHPGKAPKFMIYDVSKRPSGVSNRFSGSKSGNTASLTISGVQAEDEADYYCSSYTSASTVIFGGGTKLTVL
notes: also called Test 13
B3: anti-CD55 antibody with CD55VH (SEQ ID NO: 14) N100I and VL (SEQ ID NO: 15) (antibody, V domains shown)
VH: QVKLQESGGGLVQPGGSLKLSCAASGFTFSGYGMSWIRQTPDKRLEWVATINSGGSYTYYSDSVKGRFTISRDNVKNTLYLQMSSLKSEDTAMYYCARRIGTLYYYLMDYWGRGTLVTVSS
VL: QSVLTQPPSASGSPGQSVTISCTGTSSDVGGYNYVSWYQQHPGKAPKFMIYDVSKRPSGVSNRFSGSKSGNTASLTISGVQAEDEADYYCSSYTSASTVIFGGGTKLTVL
notes: also called Test 23
B4: anti-CD55 antibody with CD55VH (SEQ ID NO: 14) T102G and VL (SEQ ID NO: 15) (antibody, V domains shown)
VH: QVKLQESGGGLVQPGGSLKLSCAASGFTFSGYGMSWIRQTPDKRLEWVATINSGGSYTYYSDSVKGRFTISRDNVKNTLYLQMSSLKSEDTAMYYCARRNGGLYYYLMDYWGRGTLVTVSS
VL: QSVLTQPPSASGSPGQSVTISCTGTSSDVGGYNYVSWYQQHPGKAPKFMIYDVSKRPSGVSNRFSGSKSGNTASLTISGVQAEDEADYYCSSYTSASTVIFGGGTKLTVL
notes: also called Test 27
B5: anti-CD55 antibody with CD55VH (SEQ ID NO: 14) N52V and VL (SEQ ID NO: 15) (antibody, V domains shown)
VH: QVKLQESGGGLVQPGGSLKLSCAASGFTFSGYGMSWIRQTPDKRLEWVATIVSGGSYTYYSDSVKGRFTISRDNVKNTLYLQMSSLKSEDTAMYYCARRNGTLYYYLMDYWGRGTLVTVSS
VL: QSVLTQPPSASGSPGQSVTISCTGTSSDVGGYNYVSWYQQHPGKAPKFMIYDVSKRPSGVSNRFSGSKSGNTASLTISGVQAEDEADYYCSSYTSASTVIFGGGTKLTVL
notes: also called Test 5
B6: anti-CD55 antibody with CD55VH (SEQ ID NO: 14) N52W and VL (SEQ ID NO: 15) (antibody, V domains shown)
VH: QVKLQESGGGLVQPGGSLKLSCAASGFTFSGYGMSWIRQTPDKRLEWVATIWSGGSYTYYSDSVKGRFTISRDNVKNTLYLQMSSLKSEDTAMYYCARRNGTLYYYLMDYWGRGTLVTVSS
VL: QSVLTQPPSASGSPGQSVTISCTGTSSDVGGYNYVSWYQQHPGKAPKFMIYDVSKRPSGVSNRFSGSKSGNTASLTISGVQAEDEADYYCSSYTSASTVIFGGGTKLTVL
notes: also called Test 7
B7: anti-CD55 antibody with CD55VH (SEQ ID NO: 14) N100M and VL (SEQ ID NO: 15) (antibody, V domains shown)
VH: QVKLQESGGGLVQPGGSLKLSCAASGFTFSGYGMSWIRQTPDKRLEWVATINSGGSYTYYSDSVKGRFTISRDNVKNTLYLQMSSLKSEDTAMYYCARRMGTLYYYLMDYWGRGTLVTVSS
VL: QSVLTQPPSASGSPGQSVTISCTGTSSDVGGYNYVSWYQQHPGKAPKFMIYDVSKRPSGVSNRFSGSKSGNTASLTISGVQAEDEADYYCSSYTSASTVIFGGGTKLTVL
notes: also called Test 19
B8: anti-CD55 antibody with CD55VH (SEQ ID NO: 14) N100T and VL (SEQ ID NO: 15) (antibody, V domains shown)
VH: QVKLQESGGGLVQPGGSLKLSCAASGFTFSGYGMSWIRQTPDKRLEWVATINSGGSYTYYSDSVKGRFTISRDNVKNTLYLQMSSLKSEDTAMYYCARRTGTLYYYLMDYWGRGTLVTVSS
VL: QSVLTQPPSASGSPGQSVTISCTGTSSDVGGYNYVSWYQQHPGKAPKFMIYDVSKRPSGVSNRFSGSKSGNTASLTISGVQAEDEADYYCSSYTSASTVIFGGGTKLTVL
notes: also called Test 14
B9: anti-CD55 antibody with CD55VH (SEQ ID NO: 14) N100E and VL (SEQ ID NO: 15) (antibody, V domains shown)
VH: QVKLQESGGGLVQPGGSLKLSCAASGFTFSGYGMSWIRQTPDKRLEWVATINSGGSYTYYSDSVKGRFTISRDNVKNTLYLQMSSLKSEDTAMYYCARREGTLYYYLMDYWGRGTLVTVSS
VL: QSVLTQPPSASGSPGQSVTISCTGTSSDVGGYNYVSWYQQHPGKAPKFMIYDVSKRPSGVSNRFSGSKSGNTASLTISGVQAEDEADYYCSSYTSASTVIFGGGTKLTVL
notes: also called Test 24
B10: anti-CD55 antibody with CD55VH (SEQ ID NO: 14) N100Q (printed "N1000") and VL (SEQ ID NO: 15) (antibody, V domains shown)
VH: QVKLQESGGGLVQPGGSLKLSCAASGFTFSGYGMSWIRQTPDKRLEWVATINSGGSYTYYSDSVKGRFTISRDNVKNTLYLQMSSLKSEDTAMYYCARRQGTLYYYLMDYWGRGTLVTVSS
VL: QSVLTQPPSASGSPGQSVTISCTGTSSDVGGYNYVSWYQQHPGKAPKFMIYDVSKRPSGVSNRFSGSKSGNTASLTISGVQAEDEADYYCSSYTSASTVIFGGGTKLTVL
notes: The cell prints "N1000"; also called Test 22
B11: anti-CD55 antibody with CD55VH (SEQ ID NO: 14) N100L and VL (SEQ ID NO: 15) (antibody, V domains shown)
VH: QVKLQESGGGLVQPGGSLKLSCAASGFTFSGYGMSWIRQTPDKRLEWVATINSGGSYTYYSDSVKGRFTISRDNVKNTLYLQMSSLKSEDTAMYYCARRLGTLYYYLMDYWGRGTLVTVSS
VL: QSVLTQPPSASGSPGQSVTISCTGTSSDVGGYNYVSWYQQHPGKAPKFMIYDVSKRPSGVSNRFSGSKSGNTASLTISGVQAEDEADYYCSSYTSASTVIFGGGTKLTVL
notes: also called Test 17
B12: anti-CD55 antibody with CD55VH (SEQ ID NO: 14) N100V and VL (SEQ ID NO: 15) (antibody, V domains shown)
VH: QVKLQESGGGLVQPGGSLKLSCAASGFTFSGYGMSWIRQTPDKRLEWVATINSGGSYTYYSDSVKGRFTISRDNVKNTLYLQMSSLKSEDTAMYYCARRVGTLYYYLMDYWGRGTLVTVSS
VL: QSVLTQPPSASGSPGQSVTISCTGTSSDVGGYNYVSWYQQHPGKAPKFMIYDVSKRPSGVSNRFSGSKSGNTASLTISGVQAEDEADYYCSSYTSASTVIFGGGTKLTVL
notes: also called Test 15
B13: anti-CD55 antibody with CD55VH (SEQ ID NO: 14) N100A and VL (SEQ ID NO: 15) (antibody, V domains shown)
VH: QVKLQESGGGLVQPGGSLKLSCAASGFTFSGYGMSWIRQTPDKRLEWVATINSGGSYTYYSDSVKGRFTISRDNVKNTLYLQMSSLKSEDTAMYYCARRAGTLYYYLMDYWGRGTLVTVSS
VL: QSVLTQPPSASGSPGQSVTISCTGTSSDVGGYNYVSWYQQHPGKAPKFMIYDVSKRPSGVSNRFSGSKSGNTASLTISGVQAEDEADYYCSSYTSASTVIFGGGTKLTVL
notes: also called Test 20
B14: anti-CD55 antibody with CD55VH (SEQ ID NO: 14) T102M and VL (SEQ ID NO: 15) (antibody, V domains shown)
VH: QVKLQESGGGLVQPGGSLKLSCAASGFTFSGYGMSWIRQTPDKRLEWVATINSGGSYTYYSDSVKGRFTISRDNVKNTLYLQMSSLKSEDTAMYYCARRNGMLYYYLMDYWGRGTLVTVSS
VL: QSVLTQPPSASGSPGQSVTISCTGTSSDVGGYNYVSWYQQHPGKAPKFMIYDVSKRPSGVSNRFSGSKSGNTASLTISGVQAEDEADYYCSSYTSASTVIFGGGTKLTVL
notes: also called Test 26
B15: anti-CD55 antibody with CD55VH (SEQ ID NO: 14) N52S and VL (SEQ ID NO: 15) (antibody, V domains shown)
VH: QVKLQESGGGLVQPGGSLKLSCAASGFTFSGYGMSWIRQTPDKRLEWVATISSGGSYTYYSDSVKGRFTISRDNVKNTLYLQMSSLKSEDTAMYYCARRNGTLYYYLMDYWGRGTLVTVSS
VL: QSVLTQPPSASGSPGQSVTISCTGTSSDVGGYNYVSWYQQHPGKAPKFMIYDVSKRPSGVSNRFSGSKSGNTASLTISGVQAEDEADYYCSSYTSASTVIFGGGTKLTVL
notes: also called Test 2
B16: anti-CD55 antibody with CD55VH (SEQ ID NO: 14) N100F and VL (SEQ ID NO: 15) (antibody, V domains shown)
VH: QVKLQESGGGLVQPGGSLKLSCAASGFTFSGYGMSWIRQTPDKRLEWVATINSGGSYTYYSDSVKGRFTISRDNVKNTLYLQMSSLKSEDTAMYYCARRFGTLYYYLMDYWGRGTLVTVSS
VL: QSVLTQPPSASGSPGQSVTISCTGTSSDVGGYNYVSWYQQHPGKAPKFMIYDVSKRPSGVSNRFSGSKSGNTASLTISGVQAEDEADYYCSSYTSASTVIFGGGTKLTVL
notes: also called Test 18
B17: anti-CD55 antibody with CD55VH (SEQ ID NO: 14) N100H and VL (SEQ ID NO: 15) (antibody, V domains shown)
VH: QVKLQESGGGLVQPGGSLKLSCAASGFTFSGYGMSWIRQTPDKRLEWVATINSGGSYTYYSDSVKGRFTISRDNVKNTLYLQMSSLKSEDTAMYYCARRHGTLYYYLMDYWGRGTLVTVSS
VL: QSVLTQPPSASGSPGQSVTISCTGTSSDVGGYNYVSWYQQHPGKAPKFMIYDVSKRPSGVSNRFSGSKSGNTASLTISGVQAEDEADYYCSSYTSASTVIFGGGTKLTVL
notes: also called Test 21
B18: anti-CD55 antibody with CD55VH (SEQ ID NO: 14) N100Y and VL (SEQ ID NO: 15) (antibody, V domains shown)
VH: QVKLQESGGGLVQPGGSLKLSCAASGFTFSGYGMSWIRQTPDKRLEWVATINSGGSYTYYSDSVKGRFTISRDNVKNTLYLQMSSLKSEDTAMYYCARRYGTLYYYLMDYWGRGTLVTVSS
VL: QSVLTQPPSASGSPGQSVTISCTGTSSDVGGYNYVSWYQQHPGKAPKFMIYDVSKRPSGVSNRFSGSKSGNTASLTISGVQAEDEADYYCSSYTSASTVIFGGGTKLTVL
notes: also called Test 16
B19: anti-CD55 antibody with CD55VH (SEQ ID NO: 14) N52Y and VL (SEQ ID NO: 15) (antibody, V domains shown)
VH: QVKLQESGGGLVQPGGSLKLSCAASGFTFSGYGMSWIRQTPDKRLEWVATIYSGGSYTYYSDSVKGRFTISRDNVKNTLYLQMSSLKSEDTAMYYCARRNGTLYYYLMDYWGRGTLVTVSS
VL: QSVLTQPPSASGSPGQSVTISCTGTSSDVGGYNYVSWYQQHPGKAPKFMIYDVSKRPSGVSNRFSGSKSGNTASLTISGVQAEDEADYYCSSYTSASTVIFGGGTKLTVL
notes: also called Test 9

Biological target: T1, CD55 (UniProt P08174 35-353, limits assumed)
T1 construct: whole, on cells; also called CD55 on Rituximab resistant Raji cells (RRCL)
T1 sequence (looked up): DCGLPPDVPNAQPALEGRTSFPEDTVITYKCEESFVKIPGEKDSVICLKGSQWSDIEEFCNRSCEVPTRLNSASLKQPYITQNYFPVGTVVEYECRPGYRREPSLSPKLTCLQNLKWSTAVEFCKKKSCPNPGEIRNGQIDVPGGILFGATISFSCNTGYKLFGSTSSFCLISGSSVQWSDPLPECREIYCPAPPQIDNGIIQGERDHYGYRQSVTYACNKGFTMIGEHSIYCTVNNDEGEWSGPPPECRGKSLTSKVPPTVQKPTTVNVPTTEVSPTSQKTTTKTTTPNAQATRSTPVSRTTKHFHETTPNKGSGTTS
Assay: binding at 5 µg/ml against the unmutated antibody (SEQ ID NO: 14 + 15); format not stated

Function remaining percentage (5 µg/ml) [%]	Binder
11	B1
106	B2
62	B3
17	B4
21	B5
17	B6
86	B7
96	B8
17	B9
62	B10
92	B11
94	B12
83	B13
98	B14
95	B15
86	B16
72	B17
95	B18
17	B19
